# Experimental data: US20210246166A1 (Bayer, published 2021)
# Numbered stars: 1 amine (or outer) side, 2 acyl side, 3 side chain; on linkers, the order of the positions; unused ones are H or OH. Bridge positions count the residues as written; N and C are the ends. Square brackets hold non-standard residues; d marks the D form. Ends that are not written are not given here. X13 = (2S)‑2‑amino‑3‑(1-methylcyclopropyl)propanoic acid, CC1(C[C@H](N[*:1])C(=O)[*:2])CC1; Oic = O=C(O)[C@@H]1C[C@@H]2CCCC[C@@H]2N1; tBuAla = CC(C)(C)C[C@H](N)C(=O)O; Pen = CC(C)(S)[C@H](N)C(=O)O; 4Amb = NCc1ccc(C(=O)O)cc1; NMeC = CN[C@@H](CS)C(=O)O; Nva = CCC[C@H](N)C(=O)O; Ac4c = NC1(C(=O)O)CCC1; PEG2 = NCCOCCOCCC(=O)O; Sar = CNCC(=O)O
# T1: recombinant rat MASP1 active protease (amino acids 302-704, C-terminal His Tag) (rat, UniProt Q8CHN8 302-704)
# T1 sequence: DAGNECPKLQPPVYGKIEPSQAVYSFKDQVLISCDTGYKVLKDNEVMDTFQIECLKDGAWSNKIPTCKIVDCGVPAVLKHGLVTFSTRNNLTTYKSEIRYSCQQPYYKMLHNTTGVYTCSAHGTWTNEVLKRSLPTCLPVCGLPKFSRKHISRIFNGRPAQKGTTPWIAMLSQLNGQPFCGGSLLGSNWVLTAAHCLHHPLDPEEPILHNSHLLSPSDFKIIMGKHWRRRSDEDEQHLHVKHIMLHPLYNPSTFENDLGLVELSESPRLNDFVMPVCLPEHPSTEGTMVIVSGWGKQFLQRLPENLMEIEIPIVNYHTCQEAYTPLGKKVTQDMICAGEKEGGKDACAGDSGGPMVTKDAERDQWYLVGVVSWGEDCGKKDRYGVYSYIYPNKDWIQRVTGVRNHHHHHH
# Tests used:
# [1] = biological target: T1, recombinant rat MASP1 active protease …; test: cell-based or functional assay
# [2] = biological target: recombinant rat MASP2 active protease (amino acids 296-685, C-terminal His Tag) (rat, UniProt Q9JJS8 296-685); test: cell-based or functional assay
# Chain of recombinant rat MASP2 active protease (amino acids 296-685, C-terminal His Tag) (Q9JJS8 other isoform, or with tags, fused parts or gaps limits assumed): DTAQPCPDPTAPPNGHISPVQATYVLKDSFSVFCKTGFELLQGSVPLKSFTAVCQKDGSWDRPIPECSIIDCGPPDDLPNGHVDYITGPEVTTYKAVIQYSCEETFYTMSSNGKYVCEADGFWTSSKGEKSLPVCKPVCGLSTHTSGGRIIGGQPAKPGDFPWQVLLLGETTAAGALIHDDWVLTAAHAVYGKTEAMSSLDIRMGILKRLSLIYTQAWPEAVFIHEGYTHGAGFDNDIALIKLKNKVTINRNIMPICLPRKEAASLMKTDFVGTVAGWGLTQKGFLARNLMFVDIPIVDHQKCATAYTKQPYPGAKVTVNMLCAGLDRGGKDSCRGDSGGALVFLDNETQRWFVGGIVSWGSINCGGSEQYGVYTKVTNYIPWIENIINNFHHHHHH
Binder,rat MASP1 IC50 [1],rat MASP2 IC50 [2]
[4Amb]ICSRS[tBuAla]PPI[Pen]IPD-NH2 (disulfide 3-11; N-terminus assumed; SMILES CC[C@H](C)[C@H](NC(=O)c1ccc(CN)cc1)C(=O)N[C@H]1CSSC(C)(C)[C@@H](C(=O)N[C@H](C(=O)N2CCC[C@H]2C(=O)N[C@@H](CC(=O)O)C(N)=O)[C@@H](C)CC)NC(=O)[C@H]([C@@H](C)CC)NC(=O)[C@@H]2CCCN2C(=O)[C@@H]2CCCN2C(=O)[C@H](CC(C)(C)C)NC(=O)[C@H](CO)NC(=O)[C@H](CCCNC(=N)N)NC(=O)[C@H](CO)NC1=O) [Example 187: (4-(Aminomethyl)benzoic acid)-IC+SRS-((tBu)A)-PPI-(Pen)+IPD-NH2],0.077 µM,0.0037 µM
[Sar]ICSRS[X13]PPI[Pen]IP-NH2 (disulfide 3-11; N-terminus assumed; SMILES CC[C@H](C)[C@H](NC(=O)CNC)C(=O)N[C@H]1CSSC(C)(C)[C@@H](C(=O)N[C@H](C(=O)N2CCC[C@H]2C(N)=O)[C@@H](C)CC)NC(=O)[C@H]([C@@H](C)CC)NC(=O)[C@@H]2CCCN2C(=O)[C@@H]2CCCN2C(=O)[C@H](CC2(C)CC2)NC(=O)[C@H](CO)NC(=O)[C@H](CCCNC(=N)N)NC(=O)[C@H](CO)NC1=O) [Example 197: ((N-Me)G)-IC+SRS-((2S)-2-amino-3-(1-methylcyclopropyl)propanoic acid)-PPI-(Pen)+IP-NH2],0.1 µM,0.015 µM
[Sar]ICSRSLP[Oic]I[Pen]I[5‑Azaspiro(2.4)heptane‑1‑carboxylic acid]-OH (disulfide 3-11) [Example 194: ((N-Me)G)-IC+SRSLP-(Oic)-I-(Pen)+I-((5-Azaspiro[2.4]heptane-1-carboxylic acid)-OH],0.07 µM,0.042 µM
A[Nva]CSRS[tBuAla]PPI[Pen]IPD-NH2 (disulfide 3-11; N-terminus assumed; SMILES CCC[C@H](NC(=O)[C@H](C)N)C(=O)N[C@H]1CSSC(C)(C)[C@@H](C(=O)N[C@H](C(=O)N2CCC[C@H]2C(=O)N[C@@H](CC(=O)O)C(N)=O)[C@@H](C)CC)NC(=O)[C@H]([C@@H](C)CC)NC(=O)[C@@H]2CCCN2C(=O)[C@@H]2CCCN2C(=O)[C@H](CC(C)(C)C)NC(=O)[C@H](CO)NC(=O)[C@H](CCCNC(=N)N)NC(=O)[C@H](CO)NC1=O) [Example 199: A-(Nva)-C+SRS-((tBu)A)-PPI-(Pen)+IPD-NH2],0.18 µM,0.049 µM
AICSRSLP[Oic]I[NMeC]IPD-NH2 (disulfide 3-11; N-terminus assumed; SMILES CC[C@H](C)[C@H](NC(=O)[C@H](C)N)C(=O)N[C@H]1CSSC[C@@H](C(=O)N[C@H](C(=O)N2CCC[C@H]2C(=O)N[C@@H](CC(=O)O)C(N)=O)[C@@H](C)CC)N(C)C(=O)[C@H]([C@@H](C)CC)NC(=O)[C@@H]2C[C@@H]3CCCC[C@@H]3N2C(=O)[C@@H]2CCCN2C(=O)[C@H](CC(C)C)NC(=O)[C@H](CO)NC(=O)[C@H](CCCNC(=N)N)NC(=O)[C@H](CO)NC1=O) [Example 185: AIC+SRSLP-(Oic)-I-((N-Me)C)+IPD-NH2],0.057 µM,0.0109 µM
[Ac4c]ICSRS[tBuAla]PPI[Pen]I-NH2 (disulfide 3-11; N-terminus assumed; SMILES CC[C@H](C)[C@H](NC(=O)[C@H]1NC(=O)[C@H]([C@@H](C)CC)NC(=O)[C@@H]2CCCN2C(=O)[C@@H]2CCCN2C(=O)[C@H](CC(C)(C)C)NC(=O)[C@H](CO)NC(=O)[C@H](CCCNC(=N)N)NC(=O)[C@H](CO)NC(=O)[C@@H](NC(=O)[C@@H](NC(=O)C2(N)CCC2)[C@@H](C)CC)CSSC1(C)C)C(N)=O) [Example 208: (ACBA)-IC+SRS-((tBu)A)-PPI-(Pen)+I-NH2],0.061 µM,0.0086 µM
[Sar]ICSRS[tBuAla]PPI[Pen]IP-{PEG2-NH2} (disulfide 3-11) [Example 207: ((N-Me)G)-IC+SRS-((tBu)A)-PPI-(Pen)+IP-(PEG1(10 atoms))-NH2],0.043 µM,0.0336 µM
